Ends that are not written are not given here.
T1: His6-SUMO-tagged MYC3 (44–238) (Arabidopsis thaliana, UniProt Q9FIP9)
T1 sequence (Q9FIP9 44-238): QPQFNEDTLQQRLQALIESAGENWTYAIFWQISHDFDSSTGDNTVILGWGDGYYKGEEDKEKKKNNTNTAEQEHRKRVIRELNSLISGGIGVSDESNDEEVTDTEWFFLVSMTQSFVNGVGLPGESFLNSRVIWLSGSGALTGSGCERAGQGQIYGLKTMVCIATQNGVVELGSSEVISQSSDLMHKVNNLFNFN

T2: His6-SUMO-tagged MYC3 (44-238) (Arabidopsis thaliana, UniProt Q9FIP9 44-238)
T2 sequence (looked up): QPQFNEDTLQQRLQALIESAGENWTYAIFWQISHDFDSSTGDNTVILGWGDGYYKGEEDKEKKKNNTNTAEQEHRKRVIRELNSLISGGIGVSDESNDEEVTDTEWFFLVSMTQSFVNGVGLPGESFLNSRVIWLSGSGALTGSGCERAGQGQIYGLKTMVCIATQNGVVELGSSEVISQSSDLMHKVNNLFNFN

B1: fluorescein-conjugated MED25^CMIDM (614-655aa) (peptide, UniProt Q7XYY2 614-655, looked up)
peptide: YVGKADFLVFRAMSQHGFLGQLQDKKLCAVIQLPSQTLLLSV
modifications: also: 5-carboxyfluorescein-conjugated
B2: fluorescein-conjugated JAZ10^CMID (26-58aa) (peptide, UniProt Q93ZM9 26-58, looked up)
peptide: FQKFLDRRRSFRDIQGAISKIDPEIIKSLLAST
modifications: also: 5-carboxyfluorescein-conjugated

Key:
FLAG-MYC3 (full-length) = assay: AlphaScreen assay of interaction with FLAG-MYC3; type: binding, Arabidopsis; settings: FLAG-MYC3 50 nM, triplicate, in words; for AlphaScreen interaction of biotin-conjugated peptide with MYC3: Biotin-MED25^CMIDM 50, 150 or 250 nM
[1] = target: T1, His6-SUMO-tagged MYC3 (44–238); assay: Fluorescence anisotropy; type: binding; settings: in words
[2] = target: T2, His6-SUMO-tagged MYC3 (44-238); assay: fluorescence polarisation

Molecule	AlphaScreen interaction of biotin-conjugated peptide with MYC3 (FLAG-MYC3 (full-length))	Kd [2] [nM]	also measured
Biotin-MED25^CMIDM: biotin-conjugated CMIDM peptide of MED25 (614–655) (YVGKADFLVFRAMSQHGFLGQLQDKKLCAVIQLPSQTLLLSV; not fully specified (N-terminus); also: biotin-conjugated)	directly interact with MYC3	–	AlphaScreen interaction of partial peptides with FLAG-MYC3 (FLAG-MYC3 (full-length); peptide 150 nM each (Fig. 4D)): strong interaction
JAZ10^CMID: cryptic MYC-interacting domain of JAZ10 (26–58aa) (FQKFLDRRRSFRDIQGAISKIDPEIIKSLLAST; also: 5-carboxyfluorescein-conjugated) [reference compound]	–	–	binding affinity for MYC compared with Jas motif of JAZ and MED25 [1]: stronger binding affinity for MYC than both the Jas motif of JAZ and MED25
MED25^CMIDM: CMID-like MYC-interacting domain, amino acids 614 to 655 of MED25 (YVGKADFLVFRAMSQHGFLGQLQDKKLCAVIQLPSQTLLLSV; also: biotin-conjugated)	confirmed	–	interaction between MYC3 and CMIDM in FA assay ([1]; Fig. 5B): confirmed
B1	–	1900	–
B2	–	470	–

Reference: publication PMC8752898 (The Journal of Biological Chemistry, 2021)
